Experimental data as given in US20150010574A1 (Boehringer Ingelheim, published 2015).
Residue numbers refer to the chain shown, from its start. One block for each binder: values may come before it.

How the values were obtained:
human IGF-1 [1] = target: T1, human IGF-1 (human, UniProt P05019 49-118); assay: cell-based or functional assay
human IGF-2 [2] = target: T2, human IGF-2 (human, UniProt P01344 25-91); assay: cell-based or functional assay
human IGF-2 [3] = target: T2, human IGF-2; assay: cell-based or functional assay; remark: listed apart in the source
human IGF-1 [4] = target: T1, human IGF-1; assay: cell-based or functional assay; remark: listed apart in the source
human IGF-2 [5] = target: T2, human IGF-2; assay: cell-based or functional assay; remark: listed apart in the source
human IGF-1 [6] = target: T1, human IGF-1; assay: electrochemiluminescence-based equilibrium titration (BioVeris)
rat IGF-2 [7] = target: T3, rat IGF-2 (rat, UniProt P01346 25-91); assay: SPR (Biacore 3000), antibody captured by anti-human Fc, IGF antigen flowed, 25 C
T3 construct: Bought recombinant protein
T3 sequence (P01346 25-91 limits assumed): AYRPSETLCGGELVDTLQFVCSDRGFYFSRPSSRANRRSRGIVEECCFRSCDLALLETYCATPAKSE
Procedure: (§1) The sensor chip is coated with approximately 1000 RU of the reference antibody in flow cell 1 and approximately 1000 RU of a rabbit-anti-human Fc-gamma-specific antibody in flow cell 2 using the coupling reagents from an amine coupling kit. A target of 1000 RU is set in the surface preparation wizard of the Biacore 3000 software at a flow rate of 5 μl/min Running buffer used is HBS-EP. […] Blank runs using running buffer only are run in-between. A blank run curve is subtracted from each binding curve before affinity analysis. Data evaluation is performed using the BIAevaluation software (version 4.1, Biacore, Freiburg, Germany). The dissociation and association phases of the kinetics are fitted separately. For the separate fit of the kdiss values a time-frame of the initial 200-300 seconds in the dissociation phase is used (range of steady decrease of signal). For the separate fit of the kₐₛₛ values, initial time frames of approx 100 seconds are used (range of steady increase of signal) and for calculation the individual kdiss values are used with the 1:1 Langmuir association model. The average values with the standard deviations of the kinetic data together with the corresponding dissociation (KD) and association (KA) constants are calculated.

human IGF-1 [8] = target: T1, human IGF-1; assay: as above
Procedure: as §1

mouse IGF-1 [9] = target: T4, mouse IGF-1 (mouse, UniProt P05017 49-118); assay: as above
T4 construct: Bought recombinant protein; also called murine IGF-1
T4 sequence (P05017 49-118 limits assumed): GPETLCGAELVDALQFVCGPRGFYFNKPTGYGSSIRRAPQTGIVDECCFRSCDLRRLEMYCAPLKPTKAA
Procedure: as §1

rat IGF-1 [10] = target: T5, rat IGF-1 (rat, UniProt P08025 49-118); assay: as above
T5 construct: Bought recombinant protein
T5 sequence (P08025 49-118 limits assumed): as the sequence (P05017 49-118 limits assumed) above, with A69S counted along it
Procedure: as §1

human IGF-2 [11] = target: T2, human IGF-2; assay: as above
Procedure: as §1

mouse IGF-2 [12] = target: T6, mouse IGF-2 (mouse, UniProt P09535 25-91); assay: as above
T6 construct: Bought recombinant protein; also called murine IGF-2
T6 sequence (P09535 25-91 limits assumed): as the sequence (P01346 25-91 limits assumed) above, with R3G, S5G counted along it
Procedure: as §1

human insulin = target: T7, human insulin (human, UniProt P01308 25-54; P01308 90-110); assay: direct ELISA, human insulin coated at 3 ug/ml, anti-human IgG-HRPO, OD 450 nm
T7 construct: Bought (Roche); coated at 3 ug/ml in the ELISA
T7 sequence (P01308 25-54 limits assumed, chain 1 of 2): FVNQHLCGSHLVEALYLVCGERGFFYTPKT
T7 sequence (P01308 90-110 limits assumed, chain 2 of 2): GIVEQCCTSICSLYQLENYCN
Procedure: Fully human IgG1 antibodies that bound with high affinity to IGF-1 are also tested for binding to human IGF-1 in direct immunosorbent assays (ELISA). Assays are performed by coating human IGF-1 (R&D Systems, No. 291-G1) to 96-well Maxisorb plates at a concentration of 0.5 μg/ml overnight at 4° C. (100 μl/well). Coating buffer alone is used as a control for unspecific binding. Wells are then washed once with washing buffer (1×TBS-T) and residual binding sites are blocked with 200 μl blocking buffer for 1 hour at room temperature on an orbital shaker followed by a further wash cycle. Serial three-fold dilutions of each test antibody in blocking buffer are prepared directly on the coated plates. […] Blocking buffer alone is used as a positive control. The plates are then incubated for 2 hours at room temperature with agitation. After three wash cycles 100 μl/well of HRPO-conjugated anti-human IgG secondary reagent (Jackson ImmunoResearch Inc.) diluted in blocking buffer is added to all wells. After 2 hours incubation at room temperature with agitation the plates are washed three-times and 100 μl/well of TMB substrate solution (equal amounts of solution A and B) are pipetted into all wells. The plates are incubated for 10-20 min at RT with agitation and then the reaction is stopped by addition of 100 μl/well 1 M phosphoric acid. The absorbance is measured at a wavelength of 450 nm (reference 650 nm).

rat IGF-1 [13] = target: T5, rat IGF-1; assay: direct ELISA, rat IGF-1 coated on the plate, anti-human IgG-HRPO, OD 450 nm
Procedure: (§2) Fully human IgG1 antibodies that bound with high affinity to IGF-1 are also tested for binding to human IGF-1 in direct immunosorbent assays (ELISA). Assays are performed by coating human IGF-1 (R&D Systems, No. 291-G1) to 96-well Maxisorb plates at a concentration of 0.5 μg/ml overnight at 4° C. (100 μl/well). Coating buffer alone is used as a control for unspecific binding. Wells are then washed once with washing buffer (1×TBS-T) and residual binding sites are blocked with 200 μl blocking buffer for 1 hour at room temperature on an orbital shaker followed by a further wash cycle. Serial three-fold dilutions of each test antibody in blocking buffer are prepared directly on the coated plates. […] Blocking buffer alone is used as a positive control. The plates are then incubated for 2 hours at room temperature with agitation. After three wash cycles 100 μl/well of HRPO-conjugated anti-human IgG secondary reagent (Jackson ImmunoResearch Inc.) diluted in blocking buffer is added to all wells. After 2 hours incubation at room temperature with agitation the plates are washed three-times and 100 μl/well of TMB substrate solution (equal amounts of solution A and B) are pipetted into all wells. […] The absorbance is measured at a wavelength of 450 nm (reference 650 nm).

rat IGF-2 [14] = target: T3, rat IGF-2; assay: direct ELISA, rat IGF-2 coated on the plate, anti-human IgG-HRPO, OD 450 nm
Procedure: as §2

mouse IGF-1 [15] = target: T4, mouse IGF-1; assay: direct ELISA, mouse IGF-1 coated on the plate, anti-human IgG-HRPO, OD 450 nm
Procedure: as §2

mouse IGF-2 [16] = target: T6, mouse IGF-2; assay: direct ELISA, mouse IGF-2 coated on the plate, anti-human IgG-HRPO, OD 450 nm
Procedure: as §2

T2 sequence (P01344 25-91 limits assumed): as the sequence (P01346 25-91 limits assumed) above, with S22G, S32A, A35V, N36S counted along it
T1 sequence (P05019 49-118): as the sequence (P05017 49-118 limits assumed) above, with P20D, I35S, T67A, A69S counted along it

- IC50 of IGF-1 (20 ng/mL) induced IGF-1R phosphorylation, cell based ELISA (human IGF-1 [1]): 0.09 µg/mL
- IC50 of IGF-2 (100 ng/mL) induced IGF-1R phosphorylation, cell based ELISA (human IGF-2 [2]): 1.12 µg/mL
- IC50 of IGF-2 (100 ng/mL) induced IR-A phosphorylation, cell based ELISA (human IGF-2 [3]): 0.82 µg/mL
- IC50 of IGF-1 induced COLO-205 cell proliferation (human IGF-1 [4]): 0.165 µg/mL
- IC50 of IGF-1 induced MCF7 cell proliferation (human IGF-1 [4]): 0.0386 µg/mL
- IC50 of IGF-2 induced COLO 205 cell proliferation (human IGF-2 [5]): 0.632 µg/mL
- IC50 of IGF-2 induced MCF7 cell proliferation (human IGF-2 [5]): 0.0812 µg/mL
- Kd (human IGF-1 [6]): 0.13 nM
- Kd (rat IGF-2 [7]): 2.41 nM
- koff (rat IGF-2 [7]): 0.00613 s⁻¹
- kon (rat IGF-2 [7]): 2.56e+06 M⁻¹ s⁻¹
- Kd (human IGF-1 [8]): 0.07 nM
- koff (human IGF-1 [8]): 0.000301 s⁻¹
- kon (human IGF-1 [8]): 4.74e+06 M⁻¹ s⁻¹
- Kd (mouse IGF-1 [9]): 0.33 nM
- koff (mouse IGF-1 [9]): 0.000323 s⁻¹
- kon (mouse IGF-1 [9]): 1e+06 M⁻¹ s⁻¹
- Kd (rat IGF-1 [10]): 0.07 nM
- koff (rat IGF-1 [10]): 0.000253 s⁻¹
- kon (rat IGF-1 [10]): 3.81e+06 M⁻¹ s⁻¹
- Kd (human IGF-2 [11]): 0.913 nM
- koff (human IGF-2 [11]): 0.00353 s⁻¹
- kon (human IGF-2 [11]): 3.97e+06 M⁻¹ s⁻¹
- Kd (mouse IGF-2 [12]): 13.4 nM
- koff (mouse IGF-2 [12]): 0.011 s⁻¹
- kon (mouse IGF-2 [12]): 868000 M⁻¹ s⁻¹
- binding result (human insulin): no binding (tested: 50 ng/mL)
B1: antibody 60833 (antibody, human IgG1, lambda, V domains shown)
VH: QVELVESGGGLVQPGGSLRLSCAASGFTFTSYWMSWVRQAPGKGLELVSSITSYGSFTYYADSVKGRFTISRDNSKNTLYLQMNSLRAEDTAVYYCARNMYTHFDSWGQGTLVTVSS
VL: DIVLTQPPSVSGAPGQRVTISCSGSSSNIGSNSVSWYQQLPGTAPKLLIYDNSKRPSGVPDRFSGSKSGTSASLAITGLQSEDEADYYCQSRDTYGYYWVFGGGTKLTVLG
notes: Fully human IgG1 with Ig lambda light chain

- IC50 of IGF-1 induced COLO-205 cell proliferation (human IGF-1 [4]): 0.135 µg/mL
- IC50 of IGF-1 induced MCF7 cell proliferation (human IGF-1 [4]): 0.0241 µg/mL
- IC50 of IGF-2 induced COLO 205 cell proliferation (human IGF-2 [5]): 0.576 µg/mL
- IC50 of IGF-2 induced MCF7 cell proliferation (human IGF-2 [5]): 0.0782 µg/mL
- Kd (human IGF-1 [6]): 0.18 nM
- binding result (rat IGF-1 [13]): binds
- binding result (rat IGF-2 [14]): binds
- binding result (mouse IGF-1 [15]): binds
- binding result (mouse IGF-2 [16]): binds
- binding result (human insulin): no binding (tested: 50 ng/mL)
B2: antibody 60814 (antibody, human IgG1, lambda, V domains shown)
VH: QVELVESGGGLVQPGGSLRLSCAASGFTFSNYWMHWVRQAPGKGLEWVSGISGWSSWTYYADSVKGRFTISRDNSKNTLYLQMNSLRAEDTAVYYCARFGIDAYTKVYFDYWGQGTLVTVSS
VL: DIELTQPPSVSVAPGQTARISCSGDNIPLKYVSWYQQKPGQAPVLVIHDDNKRPSGIPERFSGSNSGNTATLTISGTQAEDEADYYCSSWDTLDIFNVFGGGTKLTVLG
notes: as for B1

- IC50 of IGF-1 induced COLO-205 cell proliferation (human IGF-1 [4]): 0.217 µg/mL
- IC50 of IGF-1 induced MCF7 cell proliferation (human IGF-1 [4]): 0.054 µg/mL
- IC50 of IGF-2 induced COLO 205 cell proliferation (human IGF-2 [5]): 0.101 µg/mL
- IC50 of IGF-2 induced MCF7 cell proliferation (human IGF-2 [5]): 0.0408 µg/mL
- Kd (human IGF-1 [6]): 0.19 nM
- binding result (rat IGF-1 [13]): binds
- binding result (rat IGF-2 [14]): binds
- binding result (mouse IGF-1 [15]): binds
- binding result (mouse IGF-2 [16]): binds
- binding result (human insulin): no binding (tested: 50 ng/mL)
B3: antibody 60819 (antibody, human IgG1, lambda, V domains shown)
VH: B2 VH
VL: B2 VL with S88Q, W90Y, T92Y, L93F, D94P, I95K, N97V
notes: as for B1
